From paper PMC9774280, “Colon-Targeted eNAMPT-Specific Peptide Systems for Treatment of DSS-Induced Acute and Chronic Colitis in Mouse” (Antioxidants, 2022)

Tests used:
[1] = biological target: fluorescently labeled TLR4 (recombinant) (UniProt O00206 24-839, fluorescently labeled); test: other fluorescence titration; fluorescently labeled TLR4 or CYBB titrated with unlabeled NAMPT; recombinant proteins; Kd by curve fit analysis; details: both partners purified
[2] = biological target: fluorescently labeled CYBB (recombinant) (UniProt P04839 1-570, fluorescently labeled); test: as above; details: both partners purified
Chain of fluorescently labeled CYBB (recombinant) (P04839 whole entry): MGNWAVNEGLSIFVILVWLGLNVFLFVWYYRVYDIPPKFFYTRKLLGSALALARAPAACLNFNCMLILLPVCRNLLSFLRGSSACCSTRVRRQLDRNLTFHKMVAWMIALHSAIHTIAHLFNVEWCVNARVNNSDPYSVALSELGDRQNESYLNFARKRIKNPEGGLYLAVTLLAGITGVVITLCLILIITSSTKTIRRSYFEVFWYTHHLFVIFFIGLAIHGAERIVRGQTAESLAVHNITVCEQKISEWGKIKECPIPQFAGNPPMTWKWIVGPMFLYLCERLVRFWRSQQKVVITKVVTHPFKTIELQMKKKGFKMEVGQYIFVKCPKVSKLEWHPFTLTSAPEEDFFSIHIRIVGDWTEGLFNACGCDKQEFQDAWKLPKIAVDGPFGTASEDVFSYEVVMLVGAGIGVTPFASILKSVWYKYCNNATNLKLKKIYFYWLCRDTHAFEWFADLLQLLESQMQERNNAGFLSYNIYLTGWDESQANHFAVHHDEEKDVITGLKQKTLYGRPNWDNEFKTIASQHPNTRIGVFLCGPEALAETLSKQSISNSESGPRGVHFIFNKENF

B1: recombinant NAMPT protein (natural protein, UniProt P43490 1-491, looked up)
chain: MNPAAEAEFNILLATDSYKVTHYKQYPPNTSKVYSYFECREKKTENSKLRKVKYEETVFYGLQYILNKYLKGKVVTKEKIQEAKDVYKEHFQDDVFNEKGWNYILEKYDGHLPIEIKAVPEGFVIPRGNVLFTVENTDPECYWLTNWIETILVQSWYPITVATNSREQKKILAKYLLETSGNLDGLEYKLHDFGYRGVSSQETAGIGASAHLVNFKGTDTVAGLALIKKYYGTKDPVPGYSVPAAEHSTITAWGKDHEKDAFEHIVTQFSSVPVSVVSDSYDIYNACEKIWGEDLRHLIVSRSTQAPLIIRPDSGNPLDTVLKVLEILGKKFPVTENSKGYKLLPPYLRVIQGDGVDINTLQEIVEGMKQKMWSIENIAFGSGGGLLQKLTRDLLNCSFKCSYVVTNGLGINVFKDPVADPNKRSKKGRLSLHRTPAGNFVTLEEGKGDLEEYGQDLLHTVFKNGKVTKSYSFDEIRKNAQLNIELEAAHH
notes: recombinant NAMPT protein added to BMDMs and precipitated with anti-His; The His tag is known only from the anti-His precipitation; also called rNAMPT; eNAMPT; source: recombinant
For B1, the Kd [1] was 219 nM and the Kd [2] was 896 nM.
